{"source": "patent US20020098537", "proteins": {"B1": {"name": "serum-derived hepatocyte growth factor activator (HGF activator) (protein)", "chain": "VQLSPDLLATLPEPASPGRQACGRRHKKRTFLRPRIIGGSSSLPGSHPWLAAIYIGDSFCAGSLVHTCWVVSAAHCFSHSPPRDSVSVVLGQHFFNRTTDVTQTFGIEKYIPYTLYSVFNPSDHDLVLIRLKKKGDRCATRSQFVQPICLPEPGSTFPAGHKCQIAGWGHLDENVSGYSSSLREALVPLVADHKCSSPEVYGADISPNMLCAGYFDCKSDACQGDSGGPLACEKNGVAYLYGIISWGDGCGRLHKPGVYTRVANYVDWINDRIRPPRRLVAPS"}}, "key": {"[1]": {"target": "single chain HGF (hepatocyte growth factor), P14210", "sequence (P14210 32-728)": "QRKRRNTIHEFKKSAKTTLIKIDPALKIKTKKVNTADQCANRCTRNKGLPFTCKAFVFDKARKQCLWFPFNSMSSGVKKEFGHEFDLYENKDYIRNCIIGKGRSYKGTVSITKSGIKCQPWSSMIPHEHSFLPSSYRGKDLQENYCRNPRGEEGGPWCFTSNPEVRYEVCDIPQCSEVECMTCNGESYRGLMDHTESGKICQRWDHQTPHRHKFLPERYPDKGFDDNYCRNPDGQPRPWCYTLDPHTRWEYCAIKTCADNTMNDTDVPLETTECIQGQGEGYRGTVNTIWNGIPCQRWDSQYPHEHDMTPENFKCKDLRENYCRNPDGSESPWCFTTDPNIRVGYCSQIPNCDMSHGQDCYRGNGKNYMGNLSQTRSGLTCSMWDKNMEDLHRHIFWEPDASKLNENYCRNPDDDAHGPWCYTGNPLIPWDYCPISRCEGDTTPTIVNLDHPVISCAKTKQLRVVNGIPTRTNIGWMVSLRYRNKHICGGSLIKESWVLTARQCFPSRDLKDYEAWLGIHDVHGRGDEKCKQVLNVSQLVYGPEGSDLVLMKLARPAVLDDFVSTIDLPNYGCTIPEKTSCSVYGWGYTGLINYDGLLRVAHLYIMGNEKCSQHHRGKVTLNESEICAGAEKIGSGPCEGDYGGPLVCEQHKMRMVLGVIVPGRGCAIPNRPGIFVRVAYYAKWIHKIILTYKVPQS"}, "[2]": {"target": "T1, novel protein having inhibitory activity on the protease activity of HGF activator (HAI-I), purified from MKN45 cell culture supernatant", "T1 sequence (O43278 36-529, looked up)": "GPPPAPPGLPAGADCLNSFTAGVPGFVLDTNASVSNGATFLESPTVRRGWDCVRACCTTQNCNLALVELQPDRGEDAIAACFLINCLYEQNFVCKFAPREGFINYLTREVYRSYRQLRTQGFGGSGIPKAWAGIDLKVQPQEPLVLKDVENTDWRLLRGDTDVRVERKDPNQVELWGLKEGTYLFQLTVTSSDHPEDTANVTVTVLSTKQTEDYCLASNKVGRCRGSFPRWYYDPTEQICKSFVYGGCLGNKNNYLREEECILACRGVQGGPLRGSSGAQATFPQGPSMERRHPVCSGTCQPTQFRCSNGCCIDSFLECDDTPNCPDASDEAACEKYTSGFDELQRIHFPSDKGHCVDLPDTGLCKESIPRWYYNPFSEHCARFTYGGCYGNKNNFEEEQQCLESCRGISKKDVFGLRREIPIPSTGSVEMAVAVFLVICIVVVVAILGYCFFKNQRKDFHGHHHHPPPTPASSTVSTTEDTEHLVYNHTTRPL"}}, "data": [{"protein": "B1", "values": [{"measurement": "conversion of single chain HGF to double chain HGF (SDS-PAGE under reducing conditions, CBB staining)", "setting": "[1]", "result": "the activity of HGF activator converting single chain HGF to double chain HGF"}, {"measurement": "conversion of single chain HGF to double chain HGF by HGF activator (SDS-PAGE under reducing conditions, CBB staining); 10 ng protein, 5 ng HGF activator, 10 ug single chain HGF", "setting": "[2]", "result": "Addition of the protein resulted in suppression of the activity of HGF activator converting single chain HGF to double chain HGF."}]}]}
